Tests used:
[1] = molecular target: S463P ERα ligand-binding domain (LBD); experiment: FRET or BRET; time-resolved FRET of dimer exchange: 2 nM ER-LBD labelled at C417 (biotin, streptavidin-terbium) mixed with 10 nM ER-LBD labelled at C530 (fluorescein); apo or exposed to 1 μM E2 for 30 minutes before mixing; signal followed with time
[2] = molecular target: the molecule itself; experiment: cell-based or functional assay
[3] = molecular target: T1, S463P ERα ligand-binding domain (LBD); experiment: tr-FRET dimer exchange; settings: chain shown with the change
T1 chain: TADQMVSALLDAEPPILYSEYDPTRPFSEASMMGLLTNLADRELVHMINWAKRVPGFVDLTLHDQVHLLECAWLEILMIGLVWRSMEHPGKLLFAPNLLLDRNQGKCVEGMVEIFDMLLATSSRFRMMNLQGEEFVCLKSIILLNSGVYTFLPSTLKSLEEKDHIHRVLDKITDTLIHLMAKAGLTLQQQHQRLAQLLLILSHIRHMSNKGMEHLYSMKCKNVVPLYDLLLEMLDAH

“S463P ERα ligand-binding domain (LBD) (domain or fragment)” showed a fold slower dissociation of dimers into monomers against WT ER, absence of E2 [1] of 7.6 times.

B1: HA-tagged ERα S463P (receptor, UniProt P03372 1-595, looked up)
chain: MTMTLHTKASGMALLHQIQGNELEPLNRPQLKIPLERPLGEVYLDSSKPAVYNYPEGAAYEFNAAAAANAQVYGQTGLPYGPGSEAAAFGSNGLGGFPPLNSVSPSPLMLLHPPPQLSPFLQPHGQQVPYYLENEPSGYTVREAGPPAFYRPNSDNRRQGGRERLASTNDKGSMAMESAKETRYCAVCNDYASGYHYGVWSCEGCKAFFKRSIQGHNDYMCPATNQCTIDKNRRKSCQACRLRKCYEVGMMKGGIRKDRRGGRMLKHKRQRDDGEGRGEVGSAGDMRAANLWPSPLMIKRSKKNSLALSLTADQMVSALLDAEPPILYSEYDPTRPFSEASMMGLLTNLADRELVHMINWAKRVPGFVDLTLHDQVHLLECAWLEILMIGLVWRSMEHPGKLLFAPNLLLDRNQGKCVEGMVEIFDMLLATSSRFRMMNLQGEEFVCLKSIILLNSGVYTFLPSTLKSLEEKDHIHRVLDKITDTLIHLMAKAGLTLQQQHQRLAQLLLILSHIRHMSNKGMEHLYSMKCKNVVPLYDLLLEMLDAHRLHAPTSRGGASVEETDQSHLATAGSTSSHSLQKYYITGEAEGFPATV
In the case of B1, the “estrogen-independent expression of GREB1 (RT-qPCR, fold change relative to WT), SKBR3 cells” value [2] is reported as 2.9 fold and the “estrogen-independent expression of PGR (RT-qPCR, fold change relative to WT), SKBR3 cells” value [2] is reported as 7.1 fold.

B2: HA-ERα A430K/S463P double mutant (receptor, UniProt P03372 1-595, looked up)
chain: MTMTLHTKASGMALLHQIQGNELEPLNRPQLKIPLERPLGEVYLDSSKPAVYNYPEGAAYEFNAAAAANAQVYGQTGLPYGPGSEAAAFGSNGLGGFPPLNSVSPSPLMLLHPPPQLSPFLQPHGQQVPYYLENEPSGYTVREAGPPAFYRPNSDNRRQGGRERLASTNDKGSMAMESAKETRYCAVCNDYASGYHYGVWSCEGCKAFFKRSIQGHNDYMCPATNQCTIDKNRRKSCQACRLRKCYEVGMMKGGIRKDRRGGRMLKHKRQRDDGEGRGEVGSAGDMRAANLWPSPLMIKRSKKNSLALSLTADQMVSALLDAEPPILYSEYDPTRPFSEASMMGLLTNLADRELVHMINWAKRVPGFVDLTLHDQVHLLECAWLEILMIGLVWRSMEHPGKLLFAPNLLLDRNQGKCVEGMVEIFDMLLKTSSRFRMMNLQGEEFVCLKSIILLNSGVYTFLPSTLKSLEEKDHIHRVLDKITDTLIHLMAKAGLTLQQQHQRLAQLLLILSHIRHMSNKGMEHLYSMKCKNVVPLYDLLLEMLDAHRLHAPTSRGGASVEETDQSHLATAGSTSSHSLQKYYITGEAEGFPATV
For B2, the “estrogen-independent expression of GREB1 (RT-qPCR, fold change relative to WT), SKBR3 cells” value [2] was 0.4 fold and the “estrogen-independent expression of PGR (RT-qPCR, fold change relative to WT), SKBR3 cells” value [2] was 0.2 fold.

B3: WT ERα ligand-binding domain (LBD) S463P (protein)
chain: TADQMVSALLDAEPPILYSEYDPTRPFSEASMMGLLTNLADRELVHMINWAKRVPGFVDLTLHDQVHLLECAWLEILMIGLVWRSMEHPGKLLFAPNLLLDRNQGKCVEGMVEIFDMLLATSSRFRMMNLQGEEFVCLKSIILLNSGVYTFLPSTLKSLEEKDHIHRVLDKITDTLIHLMAKAGLTLQQQHQRLAQLLLILSHIRHMSNKGMEHLYSMKCKNVVPLYDLLLEMLDAH
With B3 the other: t1/2 of dimer exchange ([3]; apo (no E2), parent: 7) was 53 min and the other: t1/2 of dimer exchange ([3]; protein exposed to 1 μM E2 for 30 minutes before dimer exchange, parent: 101) was 190 min.
